Assay results published in article PMC5247461.

Molecular target: OsPUB2 recombinant protein, bacterially expressed ((His)6-OsPUB2 and MBP-OsPUB2) (rice (Oryza sativa L.))

OsPUB3 recombinant protein, bacterially expressed ((His)6-OsPUB3 and MBP-OsPUB3) (natural protein)
apparent half-life of MBP-OsPUB2 in mock-treated rice cell-free extract when mixed with (His)6-OsPUB3 (150 min without it); cell-free degradation assay, 0-6 h at 30°C: 250 min | apparent half-life of MBP-OsPUB3 in mock-treated rice cell-free extract when mixed with (His)6-OsPUB2 (140 min without it); cell-free degradation assay, 0-6 h at 30°C: 350 min
